The text below walks through data of the supplement of paper PMC9112550, “Optimization of the antimicrobial peptide Bac7 by deep mutational scanning” (BMC Biology, 2022).

For this series, the system named is Escherichia coli TOP10. Put plainly: shrunken log2 fold change of peptide-encoding DNA abundance (4.5 h post-induction vs induction); higher = less antimicrobial activity (less host growth inhibition). The settings on record: time post-induction: 4.5 h; library: site-saturation at positions 5, 18, 19, 20.
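Further: peptides expressed intracellularly from a pBAD plasmid library in pooled LB shake-flask culture, induced with 0.3% L-arabinose, DNA abundance read by NGS, three biological replicates, DESeq2 with apeglm shrinkage.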

With RRIRCRPPRLPRPRPRPHSVPRP, the “shrunken log2 fold change” value was -0.613. In the case of RRIRMRPPRLPRPRPRPGNWPRP, the “shrunken log2 fold change” value is 0.561. The result for RRIRERPPRLPRPRPRPPYQPRP reads -0.1; that for RRIRLRPPRLPRPRPRPSGPPRP, -0.216. On to RRIRARPPRLPRPRPRPDKVPRP, for which the “shrunken log2 fold change” value worked out at 0.0597. Regarding RRIRPRPPRLPRPRPRPPIVPRP, the “shrunken log2 fold change” value is 0.161.

As to RRIRDRPPRLPRPRPRPCDNPRP, the “shrunken log2 fold change” value is -0.283. For RRIRARPPRLPRPRPRPIEPPRP, the “shrunken log2 fold change” value stood at 0.0525. As to RRIRERPPRLPRPRPRPNYAPRP, the “shrunken log2 fold change” value is -0.0181.

In the case of RRIRDRPPRLPRPRPRPPRNPRP, the “shrunken log2 fold change” value worked out at 0.27.

With RRIRQRPPRLPRPRPRPEGKPRP, the “shrunken log2 fold change” value stood at 0.0352. Under RRIRCRPPRLPRPRPRPCKMPRP stands 5.36; under RRIRPRPPRLPRPRPRPPPKPRP, 0.902. As for RRIRYRPPRLPRPRPRPHKVPRP, the “shrunken log2 fold change” value was -0.739. With RRIRVRPPRLPRPRPRPCQRPRP, the “shrunken log2 fold change” value came out at 0.0972. As to RRIRSRPPRLPRPRPRPCGDPRP, the “shrunken log2 fold change” value is -0.0559. As to RRIRVRPPRLPRPRPRPEDMPRP, the “shrunken log2 fold change” value was -0.115. Under RRIRNRPPRLPRPRPRPHEHPRP stands -0.155. For RRIRQRPPRLPRPRPRPCLHPRP, the “shrunken log2 fold change” value is -0.0247.

For the sequence RRIRKRPPRLPRPRPRPSAQPRP, the “shrunken log2 fold change” value worked out at 1.84. For the sequence RRIRKRPPRLPRPRPRPNPFPRP, the “shrunken log2 fold change” value is 1.91.

As to RRIRARPPRLPRPRPRPAFIPRP, the “shrunken log2 fold change” value is 0.142. Turning to RRIRARPPRLPRPRPRPQSAPRP, the “shrunken log2 fold change” value was found to be 0.153. Consider RRIRMRPPRLPRPRPRPPDVPRP, for which the “shrunken log2 fold change” value came out at 0.00748.

With RRIRRRPPRLPRPRPRPQHFPRP, the “shrunken log2 fold change” value stood at 0.256. Take RRIRTRPPRLPRPRPRPIRVPRP: the “shrunken log2 fold change” value was -0.519. For RRIRDRPPRLPRPRPRPRPTPRP, the “shrunken log2 fold change” value turned out to be 0.381. RRIRPRPPRLPRPRPRPLQCPRP: the “shrunken log2 fold change” value was -1.25.

Consider RRIRVRPPRLPRPRPRPTAKPRP, for which the “shrunken log2 fold change” value came to 0.0848. For the sequence RRIRNRPPRLPRPRPRPNKLPRP, the “shrunken log2 fold change” value is -0.36.

Consider RRIRMRPPRLPRPRPRPGTWPRP, for which the “shrunken log2 fold change” value was 0.043. Take RRIRERPPRLPRPRPRPNIDPRP: the “shrunken log2 fold change” value was -0.0761.

With RRIRLRPPRLPRPRPRPDINPRP, the “shrunken log2 fold change” value is -0.665.

With RRIRFRPPRLPRPRPRPRVAPRP, the “shrunken log2 fold change” value worked out at 0.439. Under RRIRDRPPRLPRPRPRPYCFPRP stands -0.744; under RRIRGRPPRLPRPRPRPSWLPRP, 0.519. On to RRIRIRPPRLPRPRPRPVKAPRP, for which the “shrunken log2 fold change” value is -0.0571. Consider RRIRMRPPRLPRPRPRPWYGPRP, for which the “shrunken log2 fold change” value is -0.0162. As to RRIRCRPPRLPRPRPRPWHHPRP, the “shrunken log2 fold change” value is -1.14.

Take RRIRQRPPRLPRPRPRPKRPPRP: the “shrunken log2 fold change” value was 0.135.

For RRIRTRPPRLPRPRPRPWAQPRP, the “shrunken log2 fold change” value was determined as 0.0456.

For the sequence RRIRYRPPRLPRPRPRPKEFPRP, the “shrunken log2 fold change” value was -0.00973. Turning to RRIRVRPPRLPRPRPRPGLNPRP, the “shrunken log2 fold change” value was -0.00582.

With RRIRRRPPRLPRPRPRPWNQPRP, the “shrunken log2 fold change” value turned out to be 0.0251. On to RRIRGRPPRLPRPRPRPRSIPRP, for which the “shrunken log2 fold change” value amounted to 0.238. In the case of RRIRKRPPRLPRPRPRPFGGPRP, the “shrunken log2 fold change” value is -0.043. With RRIRCRPPRLPRPRPRPWHYPRP, the “shrunken log2 fold change” value was -0.51. For RRIRNRPPRLPRPRPRPCEYPRP, the “shrunken log2 fold change” value was -0.0196. In the case of RRIRKRPPRLPRPRPRPFMHPRP, the “shrunken log2 fold change” value turned out to be 0.0291.

RRIRMRPPRLPRPRPRPKLAPRP: the “shrunken log2 fold change” value was determined as 2.87.
